According to patent US5223256A, “Thrombolytically active non-glycosylated protein” (Boehringer Mannheim GmbH, priority 1989, dated 1993):

Assays:
plasminogen = details: background; cited from earlier work
[1] = background; cited from earlier work
[2] = background; cited from earlier work; remark: listed apart in the source
[3] = Pharmacokinetics in rabbits (t-PA activity in plasma); format: in vivo, New-Zealand white rabbits; details: 200000 IU/kg, i.v. infusion 30 min
Method: The pharmacokinetic properties of K2P were compared to those of Actilyse® in New-Zealand white rabbits. Both fibrinolytic agents were infused for 30 minutes at a dose of 200,000 IU/kg body weight. Plasma samples were taken at defined times before, during and after the infusion. The t-PA activity was measured with a spectrophotometric test according to J. H. Verheijen et al., (Thromb. Haemostas. 48, 266, 1982), modified according to H. Lill (Z. ges. Inn. Med. 42, 478, 1987).
A calculation programme for non-linear regression modified according to H. Y. Huang (Aero-Astronautics-Report 64, Rice University, 1-30, 1969) Was used to calculate the pharmacokinetic parameters. The parameters were calculated individually using a bi-exponential pharmacokinetic model.

[4] = Pharmacokinetics in the dog (t-PA activity in plasma); format: in vivo; details: 200000 IU/kg, i.v. bolus, mean ± standard deviation
Method: (§1) In a study to determine the dosage, BM 06.022 with the eukaryotic t-PA (Alteplase, Actilyse®, Dr. Karl Thomae GmbH, Biberach, FRG) in four different doses and with placebo were injected as an initial single intravenous bolus over 1 min into heparinized dogs; 6 animals were injected with each dose. Plasma samples were taken before and at defined times after the injection in order to determine the plasma concentration of the t-PA activity and of fibrinogen, plasminogen and α2 -antiplasmin as well as the number of thrombocytes in whole blood. Fibrinogen was measured coagulometrically according to Clauss (Acta haemat. 17, 237, 1957), plasminogen and α2-antiplasmin were measured spectrophotometrically as described by Collen et al., (J. Clin. Invest. 71, 368, 1983). In addition, the "Simplate bleeding time" was measured on the hind leg of the dogs using a lancet (Simplate® I, Organon Teknika, Eppelheim, FRG) during a venostasis of 40 mm Hg (J. Surg. Res. 27, 244, 1979). The statistical comparison of the measured values after injection with the control value before injection was carried out with the Wilcoxon Test for pair differences.
The plasma concentration of the t-PA activity was measured with a spectrophotometric test according to Verheijen et al., (Thromb. Haemost. 48, 266, 1982) modified according to Lill (Z. gesamte Inn. Med. 42, 478, 1987). A calculation programme for non-linear regression modified according to H. Y. Huang (Aero-Astronautics-Report 64, Rice University, USA, 1-30, 1969) was used to calculate the pharmacokinetic parameters. The parameters were calculated individually using a bi-exponential pharmacokinetic model after subtraction of the endogenous basal level of t-PA activity from the subsequent measured values.

[5] = test system: coronary artery thrombosis; assay: Dog model for coronary artery thrombosis (thrombolysis); format: in vivo; details: for Wet weight of the residual thrombus: 2 h; for Wet weight of the residual thrombus / Reperfusion time: mean ± SEM
Description: An experimental model for acute myocardial infarction in animals was chosen as an example in order to examine the thrombolytic effect of K2P from E. coli on arterial thrombi. The dog was chosen as the animal species. The method for the formation of a coronary artery thrombus was a modification of the technique of Romson et al., (Thromb. Res. 17, 841, 1980). In the open thorax of anaesthetized dogs which were artificially respirated, the intimal surface of the ramus branch of the left circumflex coronary artery (LCX) was electrically stimulated (150 μA) and by this means a thrombus was produced. Previously a screw was applied distal to the thrombosis in order to eliminate a reactive hyperaemia by the experimental stenosis. Proximal to the coronary thrombosis the LCX was equipped with an electromagnetic flow measuring head in order to be able to measure the reperfusion.
as §1
In order to describe the thrombolytic effect, the number of reperfused animals per dose-group (=reperfusion rate) as well as the time up to the reperfusion (=reperfusion time) was quoted. In addition, the wet weight of the residual thrombus still present 2 h after injection was measured and the number of animals with a re-occlusion after reperfusion (=re-occlusionrate) was determined. With the aid of a semi-logarithmic regression analysis of the dose-effect (reperfusion rates) relationships, the effective dose for a 50% reperfusion rate (=ED50) was determined for each substance. The statistical comparison of the weights of the residual thrombi was carried out using the Wilcoxon-Mann-Whitney Test for unconnected random samples.

bleeding time = assay: Simplate bleeding time in the dog; format: in vivo; details: i.v. bolus
Method: as §1

jugular vein thrombosis = assay: Thrombolysis in the rabbit jugular vein model; format: in vivo; details: 4 h infusion, mean ± SEM
Method: (§2) The jugular vein model established by D. Collen et al., (J. Clin. Invest. 71, 368, 1983) was used to investigate the thrombolytic efficacy. K2P and Actilyse® were each examined at three dose levels. The fibrinolytic agents were infused for 4 hours and afterwards the rate of thrombolysis was determined (Table 2, FIG. 5).

[6] = Plasma t-PA activity at the end of infusion in the rabbit jugular vein model; format: in vivo; details: end of 4 h infusion, mean ± SEM
Method: as §2
(§3) Thrombolysis, level of t-PA plasma activity (at the end of a 4 h

coagulation system [7] = assay: Coagulation parameters and number of thrombocytes in the dog; format: in vivo; details: for Fibrinogen (% of initial value) / Number of platelets (% of initial value) / Plasminogen (% of initial value) / α2-Antiplasmin (% of initial value): 2 h after i.v. bolus, mean ± SEM
Method: as §1

coagulation system [8] = assay: Haemostasis parameters in the rabbit jugular vein model; format: in vivo; details: 30 min after end of infusion, mean ± SEM
Method: as §2, §3
and haemostasis parameters (30 min after the end of the infusion) of
Mean ± SEM; kU = 1000 IU; HaemostasisParameter (% with reference to […]

Substance: natural t-PA: tissue-type plasminogen activator t-PA
- increase of enzymatic activity in presence of fibrin or fibrinogen cleavage products (plasminogen): more than ten-fold
- clearance rate [1]: rapid decrease in its plasma concentration (clearance)
- side effects at high therapeutic doses [2]: side effects such as for example bleeding

Substance: Actilyse®: eukaryotic t-PA (Alteplase, Actilyse®, Dr. Karl Thomae GmbH, Biberach, FRG)
- Cinf (plasma concentration of t-PA activity at end of infusion) [3]: 326,6 IU/ml
- Cltot (total plasma clearance) [3]: 22.2 mL/min/kg
- Vc (volume of distribution of the central compartment) [3]: 73.7 mL/kg
- t1/2α [3]: 2,1 min
- t1/2β [3]: 10,9 min
- Cltot (total plasma clearance) ([3]; listed as Actilyse ®): 22,2 ml/min/kg
- Vc (volume of distribution of the central compartment) ([3]; listed as Actilyse ®): 73,7 ml/kg
- Cinj. [4]: 1674 IU/ml
- T1/2α [4]: 1.6 ± 0.2 min
- T1/2β [4]: 14,6 min
- Vc (volume of distribution of the central compartment) [4]: 106,1 ml/kg
- T1/2α ([4]; listed as Actilyse ®): 1,6 min
- Re-occlusion rate ([5]; 1 130 000 IU/kg, i.v. bolus): 4/4
- Reperfusion rate ([5]; 1 130 000 IU/kg, i.v. bolus): 4/6
- Wet weight of the residual thrombus ([5]; 1 130 000 IU/kg, i.v. bolus): 4,4 ± 0,5 mg
- Reperfusion time ([5]; 1 130 000 IU/kg, i.v. bolus): 14 ± 3 min
- Re-occlusion rate ([5]; 1 600 000 IU/kg, i.v. bolus): 4/6
- Reperfusion rate ([5]; 1 600 000 IU/kg, i.v. bolus): 6/6
- Wet weight of the residual thrombus ([5]; 1 600 000 IU/kg, i.v. bolus): 2,2 ± 0,7 mg
- Reperfusion time ([5]; 1 600 000 IU/kg, i.v. bolus): 28 ± 11 min
- Reperfusion rate ([5]; 200 000 IU/kg, i.v. bolus): 0/6
- Wet weight of the residual thrombus ([5]; 200 000 IU/kg, i.v. bolus): 8,8 ± 1,3 mg
- Re-occlusion rate ([5]; 800 000 IU/kg, i.v. bolus): 1/2
- Reperfusion rate ([5]; 800 000 IU/kg, i.v. bolus): 2/6
- Wet weight of the residual thrombus ([5]; 800 000 IU/kg, i.v. bolus): 5,5 ± 0,4 mg
- Reperfusion time ([5]; 800 000 IU/kg, i.v. bolus): 35 ± 38 min
- Reperfusion rate ([5]; 1,600 kU/kg body weight, i.v.): 100%
- re-occlusion after reperfusion ([5]; i.v. bolus): Most of the dogs treated with K2P or Actilyse® re-occluded after the reperfusion
- reperfusion time, average over all animals ([5]; i.v. bolus, all doses): 24.2 ± 6.2 min
- weight of the residual thrombus compared to placebo ([5]; increasing doses, i.v. bolus): statistically significant reduction in the weight of the residual thrombus
- bleeding time compared with control value before injection (bleeding time): increased the bleeding time which was statistically significant at doses of 1130 and 1600 kU/kg body weight
- Thrombolysis (jugular vein thrombosis; 400 kU/kg): 46 ± 3%
- Thrombolysis (jugular vein thrombosis; 800 kU/kg): 64 ± 6%
- Plasma t-PA activity ([6]; 400 kU/kg): 47 ± 9 IU/ml
- Plasma t-PA activity ([6]; 800 kU/kg): 107 ± 27 IU/ml
- Fibrinogen (% of initial value) (coagulation system [7]; 1 130 000 IU/kg): 16 ± 13%
- Number of platelets (% of initial value) (coagulation system [7]; 1 130 000 IU/kg): 110 ± 10%
- Plasminogen (% of initial value) (coagulation system [7]; 1 130 000 IU/kg): 59 ± 6%
- α2-Antiplasmin (% of initial value) (coagulation system [7]; 1 130 000 IU/kg): 45 ± 6%
- Fibrinogen (% of initial value) (coagulation system [7]; 1 600 000 IU/kg): 3±0%
- Number of platelets (% of initial value) (coagulation system [7]; 1 600 000 IU/kg): 119 ± 10%
- Plasminogen (% of initial value) (coagulation system [7]; 1 600 000 IU/kg): 46 ± 2%
- α2-Antiplasmin (% of initial value) (coagulation system [7]; 1 600 000 IU/kg): 19 ± 11%
- Fibrinogen (% of initial value) (coagulation system [7]; 1 600 000 IU/kg, listed as Actilyse ®): 3 ± 0%
- Fibrinogen (% of initial value) (coagulation system [7]; 200 000 IU/kg): 97 ± 3%
- Number of platelets (% of initial value) (coagulation system [7]; 200 000 IU/kg): 109 ± 4%
- Plasminogen (% of initial value) (coagulation system [7]; 200 000 IU/kg): 90 ± 3%
- α2-Antiplasmin (% of initial value) (coagulation system [7]; 200 000 IU/kg): 86 ± 4%
- Fibrinogen (% of initial value) (coagulation system [7]; 800 000 IU/kg): 86 ± 4%
- Number of platelets (% of initial value) (coagulation system [7]; 800 000 IU/kg): 104 ± 6%
- Plasminogen (% of initial value) (coagulation system [7]; 800 000 IU/kg): 87 ± 3%
- α2-Antiplasmin (% of initial value) (coagulation system [7]; 800 000 IU/kg): 64 ± 5%
- concentration of platelets (coagulation system [7]; 2 h after injection, dog): virtually uninfluenced
- lowering of residual contents of plasminogen and α2-antiplasmin (coagulation system [7]; 2 h after injection, dog): more pronounced with Actilyse® than with K2P
- residual content of fibrinogen at the ED50 for thrombolytic effect (coagulation system [7]; equipotent doses, semi-logarithmic regression, dog): 38.6%
- Fibrinogen (% of base line) (coagulation system [8]; 400 kU/kg): 90 ± 3%
- Plasminogen (% of base line) (coagulation system [8]; 400 kU/kg): 88 ± 4%
- α2-Antiplasmin (% of base line) (coagulation system [8]; 400 kU/kg): 87 ± 3%
- Fibrinogen (% of base line) (coagulation system [8]; 800 kU/kg): 77 ± 6%
- Plasminogen (% of base line) (coagulation system [8]; 800 kU/kg): 77 ± 4%
- α2-Antiplasmin (% of base line) (coagulation system [8]; 800 kU/kg): 74 ± 6%
